The labels stand for the following.
T1: Human CD3eg linker (human)
T1 construct: Single chain: epsilon and gamma subunits of human CD3 joined by a 29-mer linker, Flag-tag at the C-terminus; also called recombinant human CD3
T1 chain: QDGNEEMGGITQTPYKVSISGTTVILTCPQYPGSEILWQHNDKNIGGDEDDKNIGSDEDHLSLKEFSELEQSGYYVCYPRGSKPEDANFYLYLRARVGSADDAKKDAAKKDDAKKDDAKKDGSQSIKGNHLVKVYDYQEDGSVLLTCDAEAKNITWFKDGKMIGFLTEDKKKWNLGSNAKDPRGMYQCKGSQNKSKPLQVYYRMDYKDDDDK

B1: H183/L072 VH G26R (antibody, name in Kabat numbering, V domains shown)
VH: QVQLVESGGGLVQPGRSLRLSCAASRFTFSNAWMHWVRQAPGKGLEWVAQIKDKGNAYAAYYAPSVKGRFTISRDDSKNSIYLQMNSLKTEDTAVYYCHYVHYASASTVLPAFGVDAWGQGTTVTVSS
VL: DIVMTQSPLSLPVTPGEPASISCQASQELVHMNRNTYLHWYQQKPGQAPRLLIYKVSNRFPGVPDRFSGSGSGTDFTLKISRVEAEDVGVYYCAQGTSVPFTFGQGTKLEIK
B2: H183/L072 VH G52cL (antibody, name in Kabat numbering, V domains shown)
VH: QVQLVESGGGLVQPGRSLRLSCAASGFTFSNAWMHWVRQAPGKGLEWVAQIKDKLNAYAAYYAPSVKGRFTISRDDSKNSIYLQMNSLKTEDTAVYYCHYVHYASASTVLPAFGVDAWGQGTTVTVSS
VL: DIVMTQSPLSLPVTPGEPASISCQASQELVHMNRNTYLHWYQQKPGQAPRLLIYKVSNRFPGVPDRFSGSGSGTDFTLKISRVEAEDVGVYYCAQGTSVPFTFGQGTKLEIK
B3: H183/L072 VH G26W (antibody, name in Kabat numbering, V domains shown)
VH: QVQLVESGGGLVQPGRSLRLSCAASWFTFSNAWMHWVRQAPGKGLEWVAQIKDKGNAYAAYYAPSVKGRFTISRDDSKNSIYLQMNSLKTEDTAVYYCHYVHYASASTVLPAFGVDAWGQGTTVTVSS
VL: DIVMTQSPLSLPVTPGEPASISCQASQELVHMNRNTYLHWYQQKPGQAPRLLIYKVSNRFPGVPDRFSGSGSGTDFTLKISRVEAEDVGVYYCAQGTSVPFTFGQGTKLEIK
B4: H183/L072 VH G52cM (antibody, name in Kabat numbering, V domains shown)
VH: QVQLVESGGGLVQPGRSLRLSCAASGFTFSNAWMHWVRQAPGKGLEWVAQIKDKMNAYAAYYAPSVKGRFTISRDDSKNSIYLQMNSLKTEDTAVYYCHYVHYASASTVLPAFGVDAWGQGTTVTVSS
VL: DIVMTQSPLSLPVTPGEPASISCQASQELVHMNRNTYLHWYQQKPGQAPRLLIYKVSNRFPGVPDRFSGSGSGTDFTLKISRVEAEDVGVYYCAQGTSVPFTFGQGTKLEIK
B5: H183/L072 VH G52cR (antibody, name in Kabat numbering, V domains shown)
VH: QVQLVESGGGLVQPGRSLRLSCAASGFTFSNAWMHWVRQAPGKGLEWVAQIKDKRNAYAAYYAPSVKGRFTISRDDSKNSIYLQMNSLKTEDTAVYYCHYVHYASASTVLPAFGVDAWGQGTTVTVSS
VL: DIVMTQSPLSLPVTPGEPASISCQASQELVHMNRNTYLHWYQQKPGQAPRLLIYKVSNRFPGVPDRFSGSGSGTDFTLKISRVEAEDVGVYYCAQGTSVPFTFGQGTKLEIK
B6: H183/L072 VH G52cP (antibody, name in Kabat numbering, V domains shown)
VH: QVQLVESGGGLVQPGRSLRLSCAASGFTFSNAWMHWVRQAPGKGLEWVAQIKDKPNAYAAYYAPSVKGRFTISRDDSKNSIYLQMNSLKTEDTAVYYCHYVHYASASTVLPAFGVDAWGQGTTVTVSS
VL: DIVMTQSPLSLPVTPGEPASISCQASQELVHMNRNTYLHWYQQKPGQAPRLLIYKVSNRFPGVPDRFSGSGSGTDFTLKISRVEAEDVGVYYCAQGTSVPFTFGQGTKLEIK
B7: H183/L072 VH G52cE (antibody, name in Kabat numbering, V domains shown)
VH: QVQLVESGGGLVQPGRSLRLSCAASGFTFSNAWMHWVRQAPGKGLEWVAQIKDKENAYAAYYAPSVKGRFTISRDDSKNSIYLQMNSLKTEDTAVYYCHYVHYASASTVLPAFGVDAWGQGTTVTVSS
VL: DIVMTQSPLSLPVTPGEPASISCQASQELVHMNRNTYLHWYQQKPGQAPRLLIYKVSNRFPGVPDRFSGSGSGTDFTLKISRVEAEDVGVYYCAQGTSVPFTFGQGTKLEIK
B8: H183/L072 VH G26Y (antibody, name in Kabat numbering, V domains shown)
VH: QVQLVESGGGLVQPGRSLRLSCAASYFTFSNAWMHWVRQAPGKGLEWVAQIKDKGNAYAAYYAPSVKGRFTISRDDSKNSIYLQMNSLKTEDTAVYYCHYVHYASASTVLPAFGVDAWGQGTTVTVSS
VL: DIVMTQSPLSLPVTPGEPASISCQASQELVHMNRNTYLHWYQQKPGQAPRLLIYKVSNRFPGVPDRFSGSGSGTDFTLKISRVEAEDVGVYYCAQGTSVPFTFGQGTKLEIK
B9: H183/L072 VH G52cH (antibody, name in Kabat numbering, V domains shown)
VH: QVQLVESGGGLVQPGRSLRLSCAASGFTFSNAWMHWVRQAPGKGLEWVAQIKDKHNAYAAYYAPSVKGRFTISRDDSKNSIYLQMNSLKTEDTAVYYCHYVHYASASTVLPAFGVDAWGQGTTVTVSS
VL: DIVMTQSPLSLPVTPGEPASISCQASQELVHMNRNTYLHWYQQKPGQAPRLLIYKVSNRFPGVPDRFSGSGSGTDFTLKISRVEAEDVGVYYCAQGTSVPFTFGQGTKLEIK
B10: H183/L072 VH G52cI (antibody, name in Kabat numbering, V domains shown)
VH: QVQLVESGGGLVQPGRSLRLSCAASGFTFSNAWMHWVRQAPGKGLEWVAQIKDKINAYAAYYAPSVKGRFTISRDDSKNSIYLQMNSLKTEDTAVYYCHYVHYASASTVLPAFGVDAWGQGTTVTVSS
VL: DIVMTQSPLSLPVTPGEPASISCQASQELVHMNRNTYLHWYQQKPGQAPRLLIYKVSNRFPGVPDRFSGSGSGTDFTLKISRVEAEDVGVYYCAQGTSVPFTFGQGTKLEIK
B11: H183/L072 VH G52cA (antibody, name in Kabat numbering, V domains shown)
VH: QVQLVESGGGLVQPGRSLRLSCAASGFTFSNAWMHWVRQAPGKGLEWVAQIKDKANAYAAYYAPSVKGRFTISRDDSKNSIYLQMNSLKTEDTAVYYCHYVHYASASTVLPAFGVDAWGQGTTVTVSS
VL: DIVMTQSPLSLPVTPGEPASISCQASQELVHMNRNTYLHWYQQKPGQAPRLLIYKVSNRFPGVPDRFSGSGSGTDFTLKISRVEAEDVGVYYCAQGTSVPFTFGQGTKLEIK
B12: H183/L072 VH G26S (antibody, name in Kabat numbering, V domains shown)
VH: QVQLVESGGGLVQPGRSLRLSCAASSFTFSNAWMHWVRQAPGKGLEWVAQIKDKGNAYAAYYAPSVKGRFTISRDDSKNSIYLQMNSLKTEDTAVYYCHYVHYASASTVLPAFGVDAWGQGTTVTVSS
VL: DIVMTQSPLSLPVTPGEPASISCQASQELVHMNRNTYLHWYQQKPGQAPRLLIYKVSNRFPGVPDRFSGSGSGTDFTLKISRVEAEDVGVYYCAQGTSVPFTFGQGTKLEIK
B13: H183/L072 VH G52cK (antibody, name in Kabat numbering, V domains shown)
VH: QVQLVESGGGLVQPGRSLRLSCAASGFTFSNAWMHWVRQAPGKGLEWVAQIKDKKNAYAAYYAPSVKGRFTISRDDSKNSIYLQMNSLKTEDTAVYYCHYVHYASASTVLPAFGVDAWGQGTTVTVSS
VL: DIVMTQSPLSLPVTPGEPASISCQASQELVHMNRNTYLHWYQQKPGQAPRLLIYKVSNRFPGVPDRFSGSGSGTDFTLKISRVEAEDVGVYYCAQGTSVPFTFGQGTKLEIK
B14: H183/L072 VH G52cF (antibody, name in Kabat numbering, V domains shown)
VH: QVQLVESGGGLVQPGRSLRLSCAASGFTFSNAWMHWVRQAPGKGLEWVAQIKDKFNAYAAYYAPSVKGRFTISRDDSKNSIYLQMNSLKTEDTAVYYCHYVHYASASTVLPAFGVDAWGQGTTVTVSS
VL: DIVMTQSPLSLPVTPGEPASISCQASQELVHMNRNTYLHWYQQKPGQAPRLLIYKVSNRFPGVPDRFSGSGSGTDFTLKISRVEAEDVGVYYCAQGTSVPFTFGQGTKLEIK
B15: H183/L072 VH G52cN (antibody, name in Kabat numbering, V domains shown)
VH: QVQLVESGGGLVQPGRSLRLSCAASGFTFSNAWMHWVRQAPGKGLEWVAQIKDKNNAYAAYYAPSVKGRFTISRDDSKNSIYLQMNSLKTEDTAVYYCHYVHYASASTVLPAFGVDAWGQGTTVTVSS
VL: DIVMTQSPLSLPVTPGEPASISCQASQELVHMNRNTYLHWYQQKPGQAPRLLIYKVSNRFPGVPDRFSGSGSGTDFTLKISRVEAEDVGVYYCAQGTSVPFTFGQGTKLEIK
B16: H183/L072 VH G52cD (antibody, name in Kabat numbering, V domains shown)
VH: QVQLVESGGGLVQPGRSLRLSCAASGFTFSNAWMHWVRQAPGKGLEWVAQIKDKDNAYAAYYAPSVKGRFTISRDDSKNSIYLQMNSLKTEDTAVYYCHYVHYASASTVLPAFGVDAWGQGTTVTVSS
VL: DIVMTQSPLSLPVTPGEPASISCQASQELVHMNRNTYLHWYQQKPGQAPRLLIYKVSNRFPGVPDRFSGSGSGTDFTLKISRVEAEDVGVYYCAQGTSVPFTFGQGTKLEIK
B17: H183/L072 VH G26V (antibody, name in Kabat numbering, V domains shown)
VH: QVQLVESGGGLVQPGRSLRLSCAASVFTFSNAWMHWVRQAPGKGLEWVAQIKDKGNAYAAYYAPSVKGRFTISRDDSKNSIYLQMNSLKTEDTAVYYCHYVHYASASTVLPAFGVDAWGQGTTVTVSS
VL: DIVMTQSPLSLPVTPGEPASISCQASQELVHMNRNTYLHWYQQKPGQAPRLLIYKVSNRFPGVPDRFSGSGSGTDFTLKISRVEAEDVGVYYCAQGTSVPFTFGQGTKLEIK
B18: H183/L072 VH G52cQ (antibody, name in Kabat numbering, V domains shown)
VH: QVQLVESGGGLVQPGRSLRLSCAASGFTFSNAWMHWVRQAPGKGLEWVAQIKDKQNAYAAYYAPSVKGRFTISRDDSKNSIYLQMNSLKTEDTAVYYCHYVHYASASTVLPAFGVDAWGQGTTVTVSS
VL: DIVMTQSPLSLPVTPGEPASISCQASQELVHMNRNTYLHWYQQKPGQAPRLLIYKVSNRFPGVPDRFSGSGSGTDFTLKISRVEAEDVGVYYCAQGTSVPFTFGQGTKLEIK
B19: H183/L072 VH G26T (antibody, name in Kabat numbering, V domains shown)
VH: QVQLVESGGGLVQPGRSLRLSCAASTFTFSNAWMHWVRQAPGKGLEWVAQIKDKGNAYAAYYAPSVKGRFTISRDDSKNSIYLQMNSLKTEDTAVYYCHYVHYASASTVLPAFGVDAWGQGTTVTVSS
VL: DIVMTQSPLSLPVTPGEPASISCQASQELVHMNRNTYLHWYQQKPGQAPRLLIYKVSNRFPGVPDRFSGSGSGTDFTLKISRVEAEDVGVYYCAQGTSVPFTFGQGTKLEIK

The assay deals with T1, Human CD3eg linker. The assay is described as follows: Biacore SPR, vs template H183/L072.
In the case of B1, the “fold change of affinity” value was 0.5 fold.

Turning to B2, the “fold change of affinity” value was determined as 1.5 fold.

B3: the “fold change of affinity” value is 0.6 fold.

Take B4: the “fold change of affinity” value came to 1.4 fold.

B5: the “fold change of affinity” value is 1.4 fold.

For the molecule B6, the “fold change of affinity” value was determined as 1.3 fold.

B7: the “fold change of affinity” value is 1.2 fold.

As to B8, the “fold change of affinity” value came out at 0.6 fold.

For the molecule B9, the “fold change of affinity” value came to 1.7 fold.

As for B10, the “fold change of affinity” value was found to be 1.1 fold.

For B11, the “fold change of affinity” value is 1.6 fold.

Regarding B12, the “fold change of affinity” value was 0.2 fold.

In the case of B13, the “fold change of affinity” value worked out at 1.6 fold.

In the case of B14, the “fold change of affinity” value stood at 2 fold.

For B15, the “fold change of affinity” value came to 1.2 fold.

B16: the “fold change of affinity” value worked out at 1.1 fold.

As for B17, the “fold change of affinity” value is 0 fold.

Turning to B18, the “fold change of affinity” value stood at 1.9 fold.

In the case of B19, the “fold change of affinity” value was found to be 0.4 fold.

The values above are taken from patent US20210388087A1 (Chugai, published 2021).
